For data set [1], the target named is T1, human somatostatin receptor subtype 2 (Homo sapiens, UniProt P30874).
T1 construct: expressed in transfected cells
The experiment in a line: Functional cAMP assay for SSTR2 agonists (HTRF) in CHO-K1 cells. Format: cell-based. Particulars: CHO-K1 cells stably expressing human SST2, 20 min; read-out: hSST2 cAMP Avg EC50. Put shortly:
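Agonism scored as loss of NKH477 (1.6 μM)-driven cAMP, with IBMX present, after 20 min, 37° C. exposure of stably transfected CHO-K1 cells to compound dilutions (typically 0-10,000 nM). Lysates read by time-resolved FRET; cAMP interpolated from standard curve and EC50 derived.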

Another data set deals with T2, SST2 (Homo sapiens, UniProt P30874).
T2 construct: host or cells: PathHunter CHO-K1 SST2 cells
T2 sequence (P30874 whole entry): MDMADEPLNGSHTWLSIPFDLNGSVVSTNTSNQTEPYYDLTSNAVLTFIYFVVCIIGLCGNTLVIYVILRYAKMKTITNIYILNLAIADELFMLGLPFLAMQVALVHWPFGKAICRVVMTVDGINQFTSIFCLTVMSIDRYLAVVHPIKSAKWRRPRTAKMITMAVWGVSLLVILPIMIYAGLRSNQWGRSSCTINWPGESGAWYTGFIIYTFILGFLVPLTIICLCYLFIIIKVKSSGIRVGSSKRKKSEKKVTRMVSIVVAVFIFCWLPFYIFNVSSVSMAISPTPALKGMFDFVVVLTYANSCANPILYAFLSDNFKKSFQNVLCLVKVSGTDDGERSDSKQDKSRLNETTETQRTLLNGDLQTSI
The experiment in a line: PathHunter CHO-K1 SST2 internalization assay. Particulars: PathHunter CHO-K1 SST2, 90 min; read-out: Internalization EC50. Format: cell-based. Put shortly:
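IC50 comes from four-parameter curves on background-corrected duplicates of Beta-Glo luminescence, read after 60 min at room temperature in the dark. Before that, CHO-K1 SST2 internalization cells (48 h post-seeding) received SMDC as eleven threefold dilutions, 10 uM highest final, for 90 min at 37 C.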

Data set [2] relates to NCI-H524 (ATCC) human small cell lung cancer cells. It is filed as cell-based. Particulars: 2 h. In outline: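 CellTiter-Glo luminescence after a 2 h SMDC pulse (top dose 1 uM, 2-fold dilutions, 11 points), medium wash, then 70 h recovery. Cells were seeded at 5,000/well and dosed 24 h later. % inhibition vs control gave IC50 via four-parameter fit.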
Data set [3] in a line: H524 tumor biodistribution model: tumor and plasma levels of SMDC and MMAE by LC/MS-MS. It is filed as in vivo, female Athymic nude mice. Particulars: H524 tumor bearing nude mice; for level at time molar at 1 h: 1 h after 500 nmol/kg IV; for level at time molar at 4 h: 4 h after 500 nmol/kg IV. The method, then:
In this example, 5 million H524 (Small Cell Lung Cancer) cells in 1:1 Matrigel: cold Media (RPMI1640) were injected into the subcutaneous (SQ) flank of female Athymic nude mice. Tumor volumes and body weights were measured twice a week. The tumors were allowed to grow until they reached 250-500 mm^3 in size before animals were randomized into groups (n=3/time point). Animals were injected intravenously with a SMDC of the present invention at a single dose of 500 nmol/kg. […] BLQ: Below Limit of Quantitation.

[4] abbreviates: MMAE level 1 h after 500 nmol/kg IV of the conjugate.
Where [5] appears, read: MMAE level 4 h after 500 nmol/kg IV of the conjugate.
[6] abbreviates: MMAE level 24 h after 500 nmol/kg IV of the conjugate.
The mark [7] stands for this setting: MMAE level 72 h after 500 nmol/kg IV of the conjugate.
[8] abbreviates: female, Athymic nude, mouse, plasma, read-out: Conjugate Plasma.
The mark [9] stands for this setting: female, Athymic nude, mouse, plasma, 24 h after 500 nmol/kg IV, read-out: Conjugate Plasma.
The mark [10] stands for this setting: female, Athymic nude, mouse, read-out: Conjugate Tumor.
The mark [11] stands for this setting: MMAE level 168 h after 500 nmol/kg IV of the conjugate.
Setting [12] is: MMAE level 240 h after 500 nmol/kg IV of the conjugate.

Where two headings read alike, the source gives them in different places.

T1 sequence (P30874 whole entry): as above

Consider `CC[C@H](C)[C@@H]([C@@H](CC(=O)N1CCC[C@H]1[C@H](OC)[C@@H](C)C(=O)N[C@H](C)[C@@H](O)c1ccccc1)OC)N(C)C(=O)[C@@H](NC(=O)[C@H](C(C)C)N(C)C(=O)OCc1ccc(NC(=O)[C@H](CCCNC(N)=O)NC(=O)[C@@H](NC(=O)[C@H](CCC(=O)O)NC(=O)CCOCCC(=O)NCCNc2ncc(-c3cc(C)cc(F)c3)c(N3CCC(N)CC3)c2-c2nc3ccc(Cl)cc3[nH]2)C(C)C)cc1C(=O)NCCN)C(C)C` [Compound 49], for which the EC50 in data set [1] came to 0.14 nM; on SST2, 5.5 nM; in data set [2], 17.3 nM. The “Conjugate Tumor (nM)” value in data set [3] (24 h after 500 nmol/kg IV) and in data set [3] (72 h after 500 nmol/kg IV) was “BLQ” throughout. In addition, the “Conjugate Plasma (nM)” value in data set [3] (72 h after 500 nmol/kg IV) was “BLQ”. The “MMAE Plasma” value is listed as 9.2 nM in data set [3] (setting [4]) and 1.36 nM in data set [3] (setting [5]). Also, the “MMAE Tumor” value turned out to be 38 nM in data set [3] (setting [4]), 65.7 nM in data set [3] (setting [5]), 83.5 nM in data set [3] (setting [6]) and 62.7 nM in data set [3] (setting [7]). Besides, the “MMAE Plasma (nM)” value in data set [3] (setting [6]) and in data set [3] (setting [7]) was “BLQ” throughout. The level at time molar at 1 h in data set [3] (setting [8]) came to 354 nM; in data set [3] (setting [10]), 88.1 nM. The results for the level at time molar at 4 h in data set [3] (setting [8]) and in data set [3] (setting [10]) were 41.6 nM and 46.5 nM, respectively. Further, the level at time molar at 24 h in data set [3] (setting [9]) was determined as 0.783 nM.

On to `CC[C@H](C)[C@@H]([C@@H](CC(=O)N1CCC[C@H]1[C@H](OC)[C@@H](C)C(=O)N[C@H](C)[C@@H](O)c1ccccc1)OC)N(C)C(=O)[C@@H](NC(=O)[C@H](C(C)C)N(C)C(=O)OCc1ccc(NC(=O)[C@H](CCCNC(N)=O)NC(=O)[C@@H](NC(=O)[C@@H](CS(=O)(=O)O)NC(=O)CCOCCC(=O)NCCNc2ncc(-c3cc(C)cc(F)c3)c(N3CCC(N)CC3)c2-c2nc3ccc(Cl)cc3[nH]2)C(C)C)cc1C(=O)NCCN)C(C)C` [Compound 107], for which the figures for the concentration for a half-maximal effect (EC50) (in data set [1]; on SST2; in data set [2]) were 0.15 nM, 2.2 nM and 4 nM, respectively. Also, the “Conjugate Plasma (nM)” value in data set [3] (72 h after 500 nmol/kg IV), in data set [3] (168 h after 500 nmol/kg IV) and in data set [3] (240 h after 500 nmol/kg IV) was “BLQ” each time. The “Conjugate Tumor (nM)” value in data set [3] (168 h after 500 nmol/kg IV) and in data set [3] (240 h after 500 nmol/kg IV) was “BLQ” in each case. For the same compound, the “MMAE Plasma” value in data set [3] (setting [5]) is given as 2.26 nM. The “MMAE Tumor” value in data set [3] (setting [5]) worked out at 123 nM; in data set [3] (setting [6]), 242 nM; in data set [3] (setting [7]), 141 nM; in data set [3] (setting [11]) it was 90.1 nM; in data set [3] (setting [12]), 25.2 nM. The “MMAE Plasma (nM)” value in data set [3] (setting [6]), in data set [3] (setting [7]), in data set [3] (setting [11]) and in data set [3] (setting [12]) was “BLQ” each time. In addition, the level at time molar at 4 h in data set [3] (setting [8]) was found to be 83.1 nM; in data set [3] (setting [10]), 94.2 nM. In addition, the level at time molar at 24 h in data set [3] (setting [9]) turned out to be 0.441 nM; in data set [3] (female, Athymic nude, mouse, 24 h after 500 nmol/kg IV, read-out: Conjugate Tumor), 9.26 nM. For the same compound, the level at time molar at 72 h in data set [3] (female, Athymic nude, mouse, 72 h after 500 nmol/kg IV, read-out: Conjugate Tumor) was found to be 1.64 nM.

In general, EC50 refers to the midpoint of the concentration-response curve.

These data come from patent publication US12134610B2, “Somatostatin subtype-2 receptor (SST2R) targeted therapeutics and uses thereof” (priority 2022, dated 2024).
